Test [1] addresses T1, human PD-1-Fc (R and D systems, Minneapolis, Minn.) (human, UniProt Q15116 25-167).
T1 construct: bought; also called hPD-1-Fc; hPD-1; not shown: Fc part of the bought fusion
The experiment in a line: plate ELISA on human PD-1-Fc; reference A1.5.

Test [2] concerns the target T1, human PD-1-Fc (R and D systems, …). The experiment in a line: plate ELISA on human PD-1-Fc; apparent KD. Background: An ELISA detects its analyte on a solid surface through an enzyme-linked reagent.

T1 sequence (Q15116 25-167 limits assumed): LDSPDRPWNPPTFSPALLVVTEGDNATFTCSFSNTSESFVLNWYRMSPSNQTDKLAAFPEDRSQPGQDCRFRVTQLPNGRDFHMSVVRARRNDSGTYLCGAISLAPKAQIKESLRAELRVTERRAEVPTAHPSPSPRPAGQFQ

B1: PD-1 1.5 PD010 2001 (antibody, human IgG4 S228P, kappa)
heavy: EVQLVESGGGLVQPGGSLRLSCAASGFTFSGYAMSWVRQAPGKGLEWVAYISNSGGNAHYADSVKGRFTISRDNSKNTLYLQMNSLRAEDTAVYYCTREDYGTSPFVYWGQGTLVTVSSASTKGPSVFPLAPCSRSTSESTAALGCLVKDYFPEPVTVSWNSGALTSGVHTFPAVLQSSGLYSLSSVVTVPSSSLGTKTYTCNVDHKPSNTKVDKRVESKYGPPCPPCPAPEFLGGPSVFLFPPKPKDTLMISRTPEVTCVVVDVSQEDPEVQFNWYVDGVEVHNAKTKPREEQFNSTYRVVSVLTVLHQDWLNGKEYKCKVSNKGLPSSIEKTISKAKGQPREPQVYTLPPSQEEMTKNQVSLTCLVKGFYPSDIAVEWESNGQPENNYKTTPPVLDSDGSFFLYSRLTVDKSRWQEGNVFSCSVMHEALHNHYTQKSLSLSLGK
light: QGQSGQGGLCSWYLSSSGLCVDGGGSSGGSISSGLLSGRSDNHGGGSDIQLTQSPSSLSASVGDRVTITCRASESVDAYGISFMNWFQQKPGKAPKLLIYAASNQGSGVPSRFSGSGSGTDFTLTISSMQPEDFATYYCQQSKDVPWTFGQGTKLEIKRTVAAPSVFIFPPSDEQLKSGTASVVCLLNNFYPREAKVQWKVDNALQSGNSQESVTEQDSKDSTYSLSSTLTLSKADYEKHKVYACEVTHQGLSSPVTKSFNRGEC
In the case of B1, the “Masking Efficiency” value in test [1] was found to be 30. Moreover, the Kd in test [2] came out at 54 nM.

B2: PD-1 1.5 PD008 2001 (antibody, human IgG4 S228P, kappa)
heavy: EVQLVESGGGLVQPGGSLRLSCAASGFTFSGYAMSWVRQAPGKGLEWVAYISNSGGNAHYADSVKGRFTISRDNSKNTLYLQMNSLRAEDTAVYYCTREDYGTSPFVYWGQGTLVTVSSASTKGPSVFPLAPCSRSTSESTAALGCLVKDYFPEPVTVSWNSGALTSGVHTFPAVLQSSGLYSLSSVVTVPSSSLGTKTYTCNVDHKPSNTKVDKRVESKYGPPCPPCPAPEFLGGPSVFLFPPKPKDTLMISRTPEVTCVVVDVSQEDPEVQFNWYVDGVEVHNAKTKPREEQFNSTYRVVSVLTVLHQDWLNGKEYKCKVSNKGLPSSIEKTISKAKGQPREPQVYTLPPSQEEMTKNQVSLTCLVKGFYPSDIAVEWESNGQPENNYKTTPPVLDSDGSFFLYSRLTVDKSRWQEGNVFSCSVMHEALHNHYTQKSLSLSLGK
light: QGQSGQGETCNQYERSSGLCFAGGGSSGGSISSGLLSGRSDNHGGGSDIQLTQSPSSLSASVGDRVTITCRASESVDAYGISFMNWFQQKPGKAPKLLIYAASNQGSGVPSRFSGSGSGTDFTLTISSMQPEDFATYYCQQSKDVPWTFGQGTKLEIKRTVAAPSVFIFPPSDEQLKSGTASVVCLLNNFYPREAKVQWKVDNALQSGNSQESVTEQDSKDSTYSLSSTLTLSKADYEKHKVYACEVTHQGLSSPVTKSFNRGEC
As to B2, the “Masking Efficiency” value in test [1] was determined as 31. In test [2], the Kd was 55 nM.

B3: PD-1 1.5 PD003 2001 (antibody, human IgG4 S228P, kappa)
heavy: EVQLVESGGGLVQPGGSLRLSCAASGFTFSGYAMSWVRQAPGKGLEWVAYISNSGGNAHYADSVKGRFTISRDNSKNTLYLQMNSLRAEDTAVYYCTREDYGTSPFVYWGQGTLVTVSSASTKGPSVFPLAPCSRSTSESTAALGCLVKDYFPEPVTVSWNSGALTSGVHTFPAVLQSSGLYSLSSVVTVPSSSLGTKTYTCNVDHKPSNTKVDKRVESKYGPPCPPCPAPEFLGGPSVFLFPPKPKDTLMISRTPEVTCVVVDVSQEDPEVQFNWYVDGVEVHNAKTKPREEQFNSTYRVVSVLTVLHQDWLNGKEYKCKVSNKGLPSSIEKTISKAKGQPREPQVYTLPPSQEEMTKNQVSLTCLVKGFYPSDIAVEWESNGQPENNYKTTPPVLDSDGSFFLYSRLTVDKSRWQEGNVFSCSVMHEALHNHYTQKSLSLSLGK
light: QGQSGQGLVCPLYALSSGVCMGGGGSSGGSISSGLLSGRSDNHGGGSDIQLTQSPSSLSASVGDRVTITCRASESVDAYGISFMNWFQQKPGKAPKLLIYAASNQGSGVPSRFSGSGSGTDFTLTISSMQPEDFATYYCQQSKDVPWTFGQGTKLEIKRTVAAPSVFIFPPSDEQLKSGTASVVCLLNNFYPREAKVQWKVDNALQSGNSQESVTEQDSKDSTYSLSSTLTLSKADYEKHKVYACEVTHQGLSSPVTKSFNRGEC
On to B3, for which, in test [1], the “Masking Efficiency” value was found to be 61. In addition, in test [2], the Kd stood at 109 nM.

B4: PD-1 1.5 PD023 2001 (antibody, human IgG4 S228P, kappa)
heavy: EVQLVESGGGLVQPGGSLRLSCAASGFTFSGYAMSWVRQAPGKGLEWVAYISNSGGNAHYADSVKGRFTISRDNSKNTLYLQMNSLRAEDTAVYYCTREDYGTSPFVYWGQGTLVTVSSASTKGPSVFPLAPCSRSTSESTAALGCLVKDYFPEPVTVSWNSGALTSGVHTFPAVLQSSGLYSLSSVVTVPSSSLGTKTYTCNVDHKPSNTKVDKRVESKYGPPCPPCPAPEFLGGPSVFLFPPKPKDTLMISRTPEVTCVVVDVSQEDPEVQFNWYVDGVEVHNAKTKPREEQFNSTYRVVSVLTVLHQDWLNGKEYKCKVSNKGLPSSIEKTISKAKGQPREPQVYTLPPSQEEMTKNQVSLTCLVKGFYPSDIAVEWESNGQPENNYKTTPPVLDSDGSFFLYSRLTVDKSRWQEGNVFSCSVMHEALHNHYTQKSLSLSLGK
light: QGQSGQGSMAGCQWSSFCVQRDGGGSSGGSISSGLLSGRSDNHGGGSDIQLTQSPSSLSASVGDRVTITCRASESVDAYGISFMNWFQQKPGKAPKLLIYAASNQGSGVPSRFSGSGSGTDFTLTISSMQPEDFATYYCQQSKDVPWTFGQGTKLEIKRTVAAPSVFIFPPSDEQLKSGTASVVCLLNNFYPREAKVQWKVDNALQSGNSQESVTEQDSKDSTYSLSSTLTLSKADYEKHKVYACEVTHQGLSSPVTKSFNRGEC
As to B4, in test [1], the “Masking Efficiency” value was 17. Further, in test [2], the Kd came to 31 nM.

B5: PD-1 1.5 PD014 2001 (antibody, human IgG4 S228P, kappa)
heavy: not shown
light: QGQSGQGMSHCWMFSSSCDGVKGGGSSGGSISSGLLSGRSDNHGGGSDIQLTQSPSSLSASVGDRVTITCRASESVDAYGISFMNWFQQKPGKAPKLLIYAASNQGSGVPSRFSGSGSGTDFTLTISSMQPEDFATYYCQQSKDVPWTFGQGTKLEIKRTVAAPSVFIFPPSDEQLKSGTASVVCLLNNFYPREAKVQWKVDNALQSGNSQESVTEQDSKDSTYSLSSTLTLSKADYEKHKVYACEVTHQGLSSPVTKSFNRGEC
Consider B5, for which, in test [1], the “Masking Efficiency” value is 56. Further, the Kd in test [2] worked out at 100 nM.

B6: PD-1 1.5 PD020 2001 (antibody, human IgG4 S228P, kappa)
heavy: not shown
light: QGQSGQGSVCPMYALSSMLCGAGGGSSGGSISSGLLSGRSDNHGGGSDIQLTQSPSSLSASVGDRVTITCRASESVDAYGISFMNWFQQKPGKAPKLLIYAASNQGSGVPSRFSGSGSGTDFTLTISSMQPEDFATYYCQQSKDVPWTFGQGTKLEIKRTVAAPSVFIFPPSDEQLKSGTASVVCLLNNFYPREAKVQWKVDNALQSGNSQESVTEQDSKDSTYSLSSTLTLSKADYEKHKVYACEVTHQGLSSPVTKSFNRGEC
For the molecule B6, the “Masking Efficiency” value in test [1] was found to be 43. For the same molecule, in test [2], the Kd came out at 77 nM.

B7: PD-1 1.5 PD016 2001 (antibody, human IgG4 S228P, kappa)
heavy: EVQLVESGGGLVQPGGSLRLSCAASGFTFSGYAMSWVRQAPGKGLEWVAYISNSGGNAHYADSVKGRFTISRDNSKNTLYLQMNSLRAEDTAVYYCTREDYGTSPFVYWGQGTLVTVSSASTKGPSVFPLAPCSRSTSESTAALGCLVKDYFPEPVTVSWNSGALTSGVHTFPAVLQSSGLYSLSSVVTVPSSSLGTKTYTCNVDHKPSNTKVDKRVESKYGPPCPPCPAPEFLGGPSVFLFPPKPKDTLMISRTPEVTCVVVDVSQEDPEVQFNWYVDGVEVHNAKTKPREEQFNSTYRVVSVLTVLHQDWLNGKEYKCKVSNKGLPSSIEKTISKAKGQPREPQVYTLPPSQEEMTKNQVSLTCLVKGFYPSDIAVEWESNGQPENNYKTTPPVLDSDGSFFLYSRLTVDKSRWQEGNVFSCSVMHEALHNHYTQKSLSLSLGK
light: QGQSGQGVLCAAYALSSGICGGGGGSSGGSISSGLLSGRSDNHGGGSDIQLTQSPSSLSASVGDRVTITCRASESVDAYGISFMNWFQQKPGKAPKLLIYAASNQGSGVPSRFSGSGSGTDFTLTISSMQPEDFATYYCQQSKDVPWTFGQGTKLEIKRTVAAPSVFIFPPSDEQLKSGTASVVCLLNNFYPREAKVQWKVDNALQSGNSQESVTEQDSKDSTYSLSSTLTLSKADYEKHKVYACEVTHQGLSSPVTKSFNRGEC
Turning to B7, the “Masking Efficiency” value in test [1] came to 32. Further, the Kd in test [2] turned out to be 57 nM.

B8: PD-1 1.5 PD013 2001 (antibody, human IgG4 S228P, kappa)
heavy: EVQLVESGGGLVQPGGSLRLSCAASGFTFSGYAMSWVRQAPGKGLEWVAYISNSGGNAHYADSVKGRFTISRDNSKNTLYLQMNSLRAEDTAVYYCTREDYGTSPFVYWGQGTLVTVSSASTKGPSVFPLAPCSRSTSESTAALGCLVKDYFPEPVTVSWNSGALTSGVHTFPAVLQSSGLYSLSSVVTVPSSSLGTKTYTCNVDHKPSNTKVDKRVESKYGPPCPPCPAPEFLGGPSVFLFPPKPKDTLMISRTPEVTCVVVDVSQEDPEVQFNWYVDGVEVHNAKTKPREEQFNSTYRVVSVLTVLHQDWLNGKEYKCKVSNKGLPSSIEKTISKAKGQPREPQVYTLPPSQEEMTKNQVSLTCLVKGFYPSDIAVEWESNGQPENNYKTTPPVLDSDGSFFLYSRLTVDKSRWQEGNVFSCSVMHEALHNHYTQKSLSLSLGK
light: QGQSGQGSCPLYVMSSFGGCWDGGGSSGGSISSGLLSGRSDNHGGGSDIQLTQSPSSLSASVGDRVTITCRASESVDAYGISFMNWFQQKPGKAPKLLIYAASNQGSGVPSRFSGSGSGTDFTLTISSMQPEDFATYYCQQSKDVPWTFGQGTKLEIKRTVAAPSVFIFPPSDEQLKSGTASVVCLLNNFYPREAKVQWKVDNALQSGNSQESVTEQDSKDSTYSLSSTLTLSKADYEKHKVYACEVTHQGLSSPVTKSFNRGEC
As to B8, the “Masking Efficiency” value in test [1] came to 84. Further, the Kd in test [2] turned out to be 151 nM.

B9: PD-1 1.5 PD01 2001 (antibody, human IgG4 S228P, kappa)
heavy: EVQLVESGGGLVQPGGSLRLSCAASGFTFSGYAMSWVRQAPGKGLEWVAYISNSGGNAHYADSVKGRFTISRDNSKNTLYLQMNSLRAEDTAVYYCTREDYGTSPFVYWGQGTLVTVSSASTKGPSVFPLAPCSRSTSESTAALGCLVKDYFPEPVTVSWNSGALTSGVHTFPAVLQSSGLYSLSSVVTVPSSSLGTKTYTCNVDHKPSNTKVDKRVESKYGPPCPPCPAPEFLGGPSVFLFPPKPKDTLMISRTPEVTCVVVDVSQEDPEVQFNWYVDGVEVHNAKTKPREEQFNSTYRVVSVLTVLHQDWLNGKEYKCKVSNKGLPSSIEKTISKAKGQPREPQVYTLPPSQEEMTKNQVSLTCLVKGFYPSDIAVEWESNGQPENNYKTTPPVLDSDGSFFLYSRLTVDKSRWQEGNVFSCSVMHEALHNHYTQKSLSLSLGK
light: QGQSGQGAMSGCSWSAFCPYLAGGGSSGGSISSGLLSGRSDNHGGGSDIQLTQSPSSLSASVGDRVTITCRASESVDAYGISFMNWFQQKPGKAPKLLIYAASNQGSGVPSRFSGSGSGTDFTLTISSMQPEDFATYYCQQSKDVPWTFGQGTKLEIKRTVAAPSVFIFPPSDEQLKSGTASVVCLLNNFYPREAKVQWKVDNALQSGNSQESVTEQDSKDSTYSLSSTLTLSKADYEKHKVYACEVTHQGLSSPVTKSFNRGEC
Take B9: in test [1], the “Masking Efficiency” value stood at 193. Moreover, the Kd in test [2] was 348 nM.

B10: PD-1 1.5 PD002 2001 (antibody, human IgG4 S228P, kappa)
heavy: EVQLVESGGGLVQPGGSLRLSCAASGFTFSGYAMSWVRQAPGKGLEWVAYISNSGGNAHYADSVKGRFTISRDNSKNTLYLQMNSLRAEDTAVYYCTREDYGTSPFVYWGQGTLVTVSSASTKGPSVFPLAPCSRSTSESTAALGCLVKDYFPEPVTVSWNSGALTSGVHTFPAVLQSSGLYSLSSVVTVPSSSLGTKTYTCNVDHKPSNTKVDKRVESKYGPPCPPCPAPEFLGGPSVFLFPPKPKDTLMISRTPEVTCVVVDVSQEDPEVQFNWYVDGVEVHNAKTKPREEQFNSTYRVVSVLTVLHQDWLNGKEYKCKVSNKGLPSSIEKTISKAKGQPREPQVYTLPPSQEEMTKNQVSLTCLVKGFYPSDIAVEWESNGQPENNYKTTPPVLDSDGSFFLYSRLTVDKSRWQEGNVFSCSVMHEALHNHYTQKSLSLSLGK
light: QGQSGQGDVNCAIWYSVCTTVPGGGSSGGSISSGLLSGRSDNHGGGSDIQLTQSPSSLSASVGDRVTITCRASESVDAYGISFMNWFQQKPGKAPKLLIYAASNQGSGVPSRFSGSGSGTDFTLTISSMQPEDFATYYCQQSKDVPWTFGQGTKLEIKRTVAAPSVFIFPPSDEQLKSGTASVVCLLNNFYPREAKVQWKVDNALQSGNSQESVTEQDSKDSTYSLSSTLTLSKADYEKHKVYACEVTHQGLSSPVTKSFNRGEC
On to B10, for which the “Masking Efficiency” value in test [1] stood at 12. Moreover, the Kd in test [2] was 21 nM.

B11: PD-1 1.5 PD021 2001 (antibody, human IgG4 S228P, kappa)
heavy: not shown
light: QGQSGQGLSVECYVFSRCSSLPGGGSSGGSISSGLLSGRSDNHGGGSDIQLTQSPSSLSASVGDRVTITCRASESVDAYGISFMNWFQQKPGKAPKLLIYAASNQGSGVPSRFSGSGSGTDFTLTISSMQPEDFATYYCQQSKDVPWTFGQGTKLEIKRTVAAPSVFIFPPSDEQLKSGTASVVCLLNNFYPREAKVQWKVDNALQSGNSQESVTEQDSKDSTYSLSSTLTLSKADYEKHKVYACEVTHQGLSSPVTKSFNRGEC
Turning to B11, the “Masking Efficiency” value in test [1] was 27. In addition, in test [2], the Kd worked out at 49 nM.

B12: PD-1 1.5 PD015 2001 (antibody, human IgG4 S228P, kappa)
heavy: not shown
light: QGQSGQGVSYCTWLIEVTCLRGGGGSSGGSISSGLLSGRSDNHGGGSDIQLTQSPSSLSASVGDRVTITCRASESVDAYGISFMNWFQQKPGKAPKLLIYAASNQGSGVPSRFSGSGSGTDFTLTISSMQPEDFATYYCQQSKDVPWTFGQGTKLEIKRTVAAPSVFIFPPSDEQLKSGTASVVCLLNNFYPREAKVQWKVDNALQSGNSQESVTEQDSKDSTYSLSSTLTLSKADYEKHKVYACEVTHQGLSSPVTKSFNRGEC
Turning to B12, the “Masking Efficiency” value in test [1] is 65. Further, the Kd in test [2] is 117 nM.

B13: PD-1 1.5 PD024 2001 (antibody, human IgG4 S228P, kappa)
heavy: not shown
light: QGQSGQGIYSCYMFASRCTSDKGGGSSGGSISSGLLSGRSDNHGGGSDIQLTQSPSSLSASVGDRVTITCRASESVDAYGISFMNWFQQKPGKAPKLLIYAASNQGSGVPSRFSGSGSGTDFTLTISSMQPEDFATYYCQQSKDVPWTFGQGTKLEIKRTVAAPSVFIFPPSDEQLKSGTASVVCLLNNFYPREAKVQWKVDNALQSGNSQESVTEQDSKDSTYSLSSTLTLSKADYEKHKVYACEVTHQGLSSPVTKSFNRGEC
Take B13: the “Masking Efficiency” value in test [1] came to 51. Moreover, the Kd in test [2] stood at 92 nM.

B14: PD-1 1.5 PD018 2001 (antibody, human IgG4 S228P, kappa)
heavy: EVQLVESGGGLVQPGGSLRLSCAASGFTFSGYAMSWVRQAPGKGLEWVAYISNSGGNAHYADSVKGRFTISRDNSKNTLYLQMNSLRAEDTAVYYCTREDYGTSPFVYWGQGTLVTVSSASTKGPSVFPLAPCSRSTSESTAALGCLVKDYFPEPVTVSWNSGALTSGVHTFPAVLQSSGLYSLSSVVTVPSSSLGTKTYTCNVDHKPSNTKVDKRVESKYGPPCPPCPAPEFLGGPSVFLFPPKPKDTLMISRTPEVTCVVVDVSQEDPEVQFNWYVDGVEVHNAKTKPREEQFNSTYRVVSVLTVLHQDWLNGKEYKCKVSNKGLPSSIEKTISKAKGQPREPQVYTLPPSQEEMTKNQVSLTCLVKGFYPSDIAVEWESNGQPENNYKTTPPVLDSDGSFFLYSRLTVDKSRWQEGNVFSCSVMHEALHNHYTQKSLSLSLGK
light: QGQSGQGAPRCYMFASYCKSQYGGGSSGGSISSGLLSGRSDNHGGGSDIQLTQSPSSLSASVGDRVTITCRASESVDAYGISFMNWFQQKPGKAPKLLIYAASNQGSGVPSRFSGSGSGTDFTLTISSMQPEDFATYYCQQSKDVPWTFGQGTKLEIKRTVAAPSVFIFPPSDEQLKSGTASVVCLLNNFYPREAKVQWKVDNALQSGNSQESVTEQDSKDSTYSLSSTLTLSKADYEKHKVYACEVTHQGLSSPVTKSFNRGEC
As for B14, the “Masking Efficiency” value in test [1] turned out to be 42. In test [2], the Kd was determined as 75 nM.

B15: A1.5 (antibody, human IgG4 S228P, kappa)
heavy: not shown
light: DIQLTQSPSSLSASVGDRVTITCRASESVDAYGISFMNWFQQKPGKAPKLLIYAASNQGSGVPSRFSGSGSGTDFTLTISSMQPEDFATYYCQQSKDVPWTFGQGTKLEIKRTVAAPSVFIFPPSDEQLKSGTASVVCLLNNFYPREAKVQWKVDNALQSGNSQESVTEQDSKDSTYSLSSTLTLSKADYEKHKVYACEVTHQGLSSPVTKSFNRGEC
notes: humanized, full length hIgG4/hKappa; also called A1.5 Ab
B15: the Kd in test [2] was found to be 1.8 nM.

B16: PD-1 1.5 PD005 2001 (antibody, human IgG4 S228P, kappa)
heavy: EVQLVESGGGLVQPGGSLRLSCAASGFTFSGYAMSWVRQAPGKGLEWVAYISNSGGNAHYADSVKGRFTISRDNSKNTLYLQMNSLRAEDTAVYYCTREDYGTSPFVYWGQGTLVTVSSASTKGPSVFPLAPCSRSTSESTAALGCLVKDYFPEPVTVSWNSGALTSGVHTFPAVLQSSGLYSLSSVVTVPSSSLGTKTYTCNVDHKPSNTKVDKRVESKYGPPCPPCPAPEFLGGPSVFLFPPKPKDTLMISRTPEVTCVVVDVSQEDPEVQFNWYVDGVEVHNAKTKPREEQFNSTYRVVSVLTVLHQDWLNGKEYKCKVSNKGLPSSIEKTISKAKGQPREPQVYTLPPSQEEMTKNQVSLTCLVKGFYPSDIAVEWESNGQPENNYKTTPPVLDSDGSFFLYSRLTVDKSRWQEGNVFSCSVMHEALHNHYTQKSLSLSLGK
light: QGQSGQGMLVCSLQPTAMCERVGGGSSGGSISSGLLSGRSDNHGGGSDIQLTQSPSSLSASVGDRVTITCRASESVDAYGISFMNWFQQKPGKAPKLLIYAASNQGSGVPSRFSGSGSGTDFTLTISSMQPEDFATYYCQQSKDVPWTFGQGTKLEIKRTVAAPSVFIFPPSDEQLKSGTASVVCLLNNFYPREAKVQWKVDNALQSGNSQESVTEQDSKDSTYSLSSTLTLSKADYEKHKVYACEVTHQGLSSPVTKSFNRGEC
In the case of B16, the “Masking Efficiency” value in test [1] stood at 38. Moreover, the Kd in test [2] was 68 nM.

B17: PD-1 1.5 PD011 2001 (antibody, human IgG4 S228P, kappa)
heavy: not shown
light: QGQSGQGVPWCQLTPRVMCMWAGGGSSGGSISSGLLSGRSDNHGGGSDIQLTQSPSSLSASVGDRVTITCRASESVDAYGISFMNWFQQKPGKAPKLLIYAASNQGSGVPSRFSGSGSGTDFTLTISSMQPEDFATYYCQQSKDVPWTFGQGTKLEIKRTVAAPSVFIFPPSDEQLKSGTASVVCLLNNFYPREAKVQWKVDNALQSGNSQESVTEQDSKDSTYSLSSTLTLSKADYEKHKVYACEVTHQGLSSPVTKSFNRGEC
With B17, in test [1], the “Masking Efficiency” value was 37. The Kd in test [2] is 67 nM.

The record behind these values is US20170044259A1 (CYTOMX THERAPEUTICS, published 2017).
